The record followed here is patent publication US20230036928A1 (Sanofi, published 2023).

The experiment has as its target T1, TGF-β2.
T1 sequence (P61812 303-414, species assumed, looked up): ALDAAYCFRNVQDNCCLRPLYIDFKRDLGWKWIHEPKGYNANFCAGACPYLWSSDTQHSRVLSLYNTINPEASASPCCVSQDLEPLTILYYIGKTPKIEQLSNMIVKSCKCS
Description: cell-based or functional assay.

B1: Ab1 (antibody, human IgG4 S228P, kappa, V domains shown)
VH: QVQLVQSGAEVKKPGSSVKVSCKASGYTFSSNVISWVRQAPGQGLEWMGGVIPIVDIANYAQRFKGRVTITADESTSTTYMELSSLRSEDTAVYYCASTLGLVLDAMDYWGQGTLVTVSS
VL: ETVLTQSPGTLSLSPGERATLSCRASQSLGSSYLAWYQQKPGQAPRLLIYGASSRAPGIPDRFSGSGSGTDFTLTISRLEPEDFAVYYCQQYADSPITFGQGTRLEIKR
B1: the “relative potency (EC50 of the reference divided by EC50 of the test sample) in mink lung cell proliferation assay with PrestoBlue read-out” value was ~1 ratio (relative potency).
